Source: the supplement of paper PMC9112550, “Optimization of the antimicrobial peptide Bac7 by deep mutational scanning” (BMC Biology, 2022)
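Further: peptides expressed intracellularly from a pBAD plasmid library in pooled LB shake-flask culture, induced with 0.3% L-arabinose, DNA abundance read by NGS, three biological replicates, DESeq2 with apeglm shrinkage.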

What follows are sequences tested on Escherichia coli TOP10 (assay: shrunken log2 fold change of peptide-encoding DNA abundance (4.5 h post-induction vs induction); higher = less antimicrobial activity (less host growth inhibition)). Conditions: time post-induction: 4.5 h; library: site-saturation at positions 5, 18, 19, 20.
RRIRRRPPRLPRPRPRPSMKPRP was tested, and the “shrunken log2 fold change” value was -0.434. RRIRRRPPRLPRPRPRPSNQPRP was tested, and the “shrunken log2 fold change” value was 0.00316. RRIRRRPPRLPRPRPRPSPLPRP was tested, and the “shrunken log2 fold change” value was 0.479. RRIRRRPPRLPRPRPRPSPRPRP was tested, and the “shrunken log2 fold change” value was 1.03. In the case of RRIRRRPPRLPRPRPRPSRIPRP, the “shrunken log2 fold change” value is reported as 0.157. RRIRRRPPRLPRPRPRPSRKPRP was tested, and the “shrunken log2 fold change” value was 0.129. For RRIRRRPPRLPRPRPRPSRNPRP, the “shrunken log2 fold change” value was 0.453. With RRIRRRPPRLPRPRPRPSTGPRP the “shrunken log2 fold change” value was 0.112. For RRIRRRPPRLPRPRPRPSVRPRP, the “shrunken log2 fold change” value was 0.238. In the case of RRIRRRPPRLPRPRPRPSVYPRP, the “shrunken log2 fold change” value is reported as -0.0412. With RRIRRRPPRLPRPRPRPSWSPRP the “shrunken log2 fold change” value was -0.116. For RRIRRRPPRLPRPRPRPSYFPRP, the “shrunken log2 fold change” value was -0.395. RRIRRRPPRLPRPRPRPSYWPRP was tested, and the “shrunken log2 fold change” value was -0.0367. With RRIRRRPPRLPRPRPRPTAAPRP the “shrunken log2 fold change” value was 1.21. For RRIRRRPPRLPRPRPRPTADPRP, the “shrunken log2 fold change” value was 0.808. In the case of RRIRRRPPRLPRPRPRPTAKPRP, the “shrunken log2 fold change” value is reported as 0.371. RRIRRRPPRLPRPRPRPTAWPRP was tested, and the “shrunken log2 fold change” value was 0.288. RRIRRRPPRLPRPRPRPTCKPRP was tested, and the “shrunken log2 fold change” value was 0.0874. With RRIRRRPPRLPRPRPRPTCWPRP the “shrunken log2 fold change” value was 0.225. In the case of RRIRRRPPRLPRPRPRPTDFPRP, the “shrunken log2 fold change” value is reported as -0.00455. With RRIRRRPPRLPRPRPRPTDTPRP the “shrunken log2 fold change” value was -0.11. For RRIRRRPPRLPRPRPRPTEIPRP, the “shrunken log2 fold change” value was 0.299. In the case of RRIRRRPPRLPRPRPRPTESPRP, the “shrunken log2 fold change” value is reported as 0.121. RRIRRRPPRLPRPRPRPTFPPRP was tested, and the “shrunken log2 fold change” value was 0.444. In the case of RRIRRRPPRLPRPRPRPTFSPRP, the “shrunken log2 fold change” value is reported as 0.185. In the case of RRIRRRPPRLPRPRPRPTGHPRP, the “shrunken log2 fold change” value is reported as 0.236. In the case of RRIRRRPPRLPRPRPRPTGIPRP, the “shrunken log2 fold change” value is reported as 0.872. For RRIRRRPPRLPRPRPRPTHMPRP, the “shrunken log2 fold change” value was 0.577. RRIRRRPPRLPRPRPRPTIYPRP was tested, and the “shrunken log2 fold change” value was -0.1. RRIRRRPPRLPRPRPRPTKKPRP was tested, and the “shrunken log2 fold change” value was 0.253. With RRIRRRPPRLPRPRPRPTLHPRP the “shrunken log2 fold change” value was 0.534. RRIRRRPPRLPRPRPRPTLRPRP was tested, and the “shrunken log2 fold change” value was 0.712. For RRIRRRPPRLPRPRPRPTNIPRP, the “shrunken log2 fold change” value was -0.304. RRIRRRPPRLPRPRPRPTNRPRP was tested, and the “shrunken log2 fold change” value was 0.282. With RRIRRRPPRLPRPRPRPTPYPRP the “shrunken log2 fold change” value was 0.545. In the case of RRIRRRPPRLPRPRPRPTQIPRP, the “shrunken log2 fold change” value is reported as -0.0829. In the case of RRIRRRPPRLPRPRPRPTSIPRP, the “shrunken log2 fold change” value is reported as -0.107. For RRIRRRPPRLPRPRPRPTSQPRP, the “shrunken log2 fold change” value was 0.249. For RRIRRRPPRLPRPRPRPTSSPRP, the “shrunken log2 fold change” value was 0.04. In the case of RRIRRRPPRLPRPRPRPTYEPRP, the “shrunken log2 fold change” value is reported as -0.21. RRIRRRPPRLPRPRPRPVAMPRP was tested, and the “shrunken log2 fold change” value was 0.342. In the case of RRIRRRPPRLPRPRPRPVARPRP, the “shrunken log2 fold change” value is reported as 0.896. RRIRRRPPRLPRPRPRPVDEPRP was tested, and the “shrunken log2 fold change” value was 0.0882. With RRIRRRPPRLPRPRPRPVDHPRP the “shrunken log2 fold change” value was 0.34. In the case of RRIRRRPPRLPRPRPRPVDNPRP, the “shrunken log2 fold change” value is reported as 0.0838. RRIRRRPPRLPRPRPRPVDTPRP was tested, and the “shrunken log2 fold change” value was 0.0438. In the case of RRIRRRPPRLPRPRPRPVFPPRP, the “shrunken log2 fold change” value is reported as 0.488. For RRIRRRPPRLPRPRPRPVFWPRP, the “shrunken log2 fold change” value was 0.369. RRIRRRPPRLPRPRPRPVGFPRP was tested, and the “shrunken log2 fold change” value was 0.362. For RRIRRRPPRLPRPRPRPVIRPRP, the “shrunken log2 fold change” value was 0.1. In the case of RRIRRRPPRLPRPRPRPVIYPRP, the “shrunken log2 fold change” value is reported as 0.0526. RRIRRRPPRLPRPRPRPVKSPRP was tested, and the “shrunken log2 fold change” value was 0.625. With RRIRRRPPRLPRPRPRPVLFPRP the “shrunken log2 fold change” value was 0.315. In the case of RRIRRRPPRLPRPRPRPVPTPRP, the “shrunken log2 fold change” value is reported as 0.472. With RRIRRRPPRLPRPRPRPVQLPRP the “shrunken log2 fold change” value was -0.0275. RRIRRRPPRLPRPRPRPVSKPRP was tested, and the “shrunken log2 fold change” value was 0.24. RRIRRRPPRLPRPRPRPVSSPRP was tested, and the “shrunken log2 fold change” value was 0.0647. In the case of RRIRRRPPRLPRPRPRPVSTPRP, the “shrunken log2 fold change” value is reported as -0.134. For RRIRRRPPRLPRPRPRPVTHPRP, the “shrunken log2 fold change” value was 0.598. RRIRRRPPRLPRPRPRPVTKPRP was tested, and the “shrunken log2 fold change” value was 0.28. In the case of RRIRRRPPRLPRPRPRPVVVPRP, the “shrunken log2 fold change” value is reported as 0.186. RRIRRRPPRLPRPRPRPVWHPRP was tested, and the “shrunken log2 fold change” value was 0.278. In the case of RRIRRRPPRLPRPRPRPVWNPRP, the “shrunken log2 fold change” value is reported as 0.0425. With RRIRRRPPRLPRPRPRPVYYPRP the “shrunken log2 fold change” value was -0.223. RRIRRRPPRLPRPRPRPWCAPRP was tested, and the “shrunken log2 fold change” value was 0.419. For RRIRRRPPRLPRPRPRPWDHPRP, the “shrunken log2 fold change” value was 0.0105. In the case of RRIRRRPPRLPRPRPRPWFHPRP, the “shrunken log2 fold change” value is reported as 0.0067. For RRIRRRPPRLPRPRPRPWFRPRP, the “shrunken log2 fold change” value was 0.0331. In the case of RRIRRRPPRLPRPRPRPWGAPRP, the “shrunken log2 fold change” value is reported as 0.483. For RRIRRRPPRLPRPRPRPWGKPRP, the “shrunken log2 fold change” value was -0.0259. In the case of RRIRRRPPRLPRPRPRPWGNPRP, the “shrunken log2 fold change” value is reported as 0.352. For RRIRRRPPRLPRPRPRPWHAPRP, the “shrunken log2 fold change” value was 0.279. In the case of RRIRRRPPRLPRPRPRPWHIPRP, the “shrunken log2 fold change” value is reported as -0.246. RRIRRRPPRLPRPRPRPWIPPRP was tested, and the “shrunken log2 fold change” value was -0.129. RRIRRRPPRLPRPRPRPWLEPRP was tested, and the “shrunken log2 fold change” value was 0.0128. In the case of RRIRRRPPRLPRPRPRPWLNPRP, the “shrunken log2 fold change” value is reported as -0.0295. RRIRRRPPRLPRPRPRPWLTPRP was tested, and the “shrunken log2 fold change” value was -0.245. RRIRRRPPRLPRPRPRPWMEPRP was tested, and the “shrunken log2 fold change” value was -0.137. In the case of RRIRRRPPRLPRPRPRPWMSPRP, the “shrunken log2 fold change” value is reported as 0.118. RRIRRRPPRLPRPRPRPWNHPRP was tested, and the “shrunken log2 fold change” value was -0.0953. With RRIRRRPPRLPRPRPRPWNQPRP the “shrunken log2 fold change” value was 0.0251. For RRIRRRPPRLPRPRPRPWQYPRP, the “shrunken log2 fold change” value was 0.0419. RRIRRRPPRLPRPRPRPWRAPRP was tested, and the “shrunken log2 fold change” value was 0.181. For RRIRRRPPRLPRPRPRPWSNPRP, the “shrunken log2 fold change” value was -0.226. For RRIRRRPPRLPRPRPRPWSRPRP, the “shrunken log2 fold change” value was 0.0777. RRIRRRPPRLPRPRPRPWTTPRP was tested, and the “shrunken log2 fold change” value was 0.201. For RRIRRRPPRLPRPRPRPWWTPRP, the “shrunken log2 fold change” value was 0.0815. For RRIRRRPPRLPRPRPRPWYHPRP, the “shrunken log2 fold change” value was -0.0689. RRIRRRPPRLPRPRPRPYCLPRP was tested, and the “shrunken log2 fold change” value was -0.574. For RRIRRRPPRLPRPRPRPYEHPRP, the “shrunken log2 fold change” value was -0.0324. For RRIRRRPPRLPRPRPRPYEYPRP, the “shrunken log2 fold change” value was -0.206. In the case of RRIRRRPPRLPRPRPRPYHLPRP, the “shrunken log2 fold change” value is reported as -0.307. For RRIRRRPPRLPRPRPRPYIEPRP, the “shrunken log2 fold change” value was -0.338. RRIRRRPPRLPRPRPRPYIQPRP was tested, and the “shrunken log2 fold change” value was -0.603. For RRIRRRPPRLPRPRPRPYKEPRP, the “shrunken log2 fold change” value was -0.463. With RRIRRRPPRLPRPRPRPYKLPRP the “shrunken log2 fold change” value was -0.669. For RRIRRRPPRLPRPRPRPYKQPRP, the “shrunken log2 fold change” value was -0.286. With RRIRRRPPRLPRPRPRPYLSPRP the “shrunken log2 fold change” value was -0.288. In the case of RRIRRRPPRLPRPRPRPYMRPRP, the “shrunken log2 fold change” value is reported as 0.044. With RRIRRRPPRLPRPRPRPYMSPRP the “shrunken log2 fold change” value was -0.054. For RRIRRRPPRLPRPRPRPYNWPRP, the “shrunken log2 fold change” value was -0.734. In the case of RRIRRRPPRLPRPRPRPYRDPRP, the “shrunken log2 fold change” value is reported as -0.111. For RRIRRRPPRLPRPRPRPYRNPRP, the “shrunken log2 fold change” value was 0.0114. For RRIRRRPPRLPRPRPRPYSKPRP, the “shrunken log2 fold change” value was -0.129. For RRIRRRPPRLPRPRPRPYVGPRP, the “shrunken log2 fold change” value was -0.00208. RRIRRRPPRLPRPRPRPYVNPRP was tested, and the “shrunken log2 fold change” value was -0.0793. For RRIRRRPPRLPRPRPRPYVSPRP, the “shrunken log2 fold change” value was -0.00885. With RRIRRRPPRLPRPRPRPYWVPRP the “shrunken log2 fold change” value was 0.0443. For RRIRRRPPRLPRPRPRPYYQPRP, the “shrunken log2 fold change” value was -0.617.
